Assay results published in patent US11839219B2, “BVP10 protein for controlling tetranychid mites and use thereof” (priority 2021, dated 2023).

Columns and labels:
[1] = system: Panonychus citri; assay: Slide dipping method, miticidal activity against Panonychus citri; conditions: for Mortality (%): 24 hrs after dipping; for Probability Unit (P + 5): probit of mortality
Text: (§1) Referring to the standard method for determining pest mites, namely, the slide dipping method, recommended by the Food and Agriculture Organization of the United Nations (FAO), a double-faced adhesive tape is cut into pieces 2-3 cm long and stuck to one end of a microscope slide, and paper on the adhesive tape is removed with tweezers. Female adult mites with similar sizes, bright body color and high vitality are picked with a 0# Chinese writing brush, and are stuck to the double-faced adhesive tape (note: the feet, whiskers, and mouthparts of the mites should not be stuck) on their backs, with 4 lines stuck to each piece and 10 mites in each line. The mites are placed and left in a biochemical incubator with the temperature of 25° C. and a relative humidity of approximately 85% for 4 hrs, and then are observed with binoculars. […] The agent is diluted 5-7 times with water based on a preliminary test. One end of the slide with the mites is dipped into the agent solution, shaken lightly for 5 s and then taken out. The mites, as well as the excessive agent solution therearound, are rapidly dried with absorbent paper. The slide is placed and left in the above biochemical incubator. After 24 hrs, the results are checked with the binoculars. The bodies of the mites are lightly touched with the Chinese writing brush, and those without any motion of their feet are considered to be dead. The test is repeated three times at each concentration, and the mites dipped in fresh water are taken as a control. […] An LC50 value is calculated by using the SPASS 19.0 data processing software.

[2] = system: strawberry red spider mites; assay: Field control of strawberry red spider mites; assay type: in vivo; conditions: for Control effect (%): corrected against fresh water control
Experimental: Test agents: 20% avermectin spirodiclofen suspension (Hebei Xingbai Agricultural Technology Co., Ltd., diluted 3000 times during use; and the biological mite pesticide BVP10 with the effective protein concentration of 389.5 μg/mL.
The test included three treatments, each repeated three times; blocks are randomly permuted; and the agents are applied to […] in each block with protective rows provided around the plants. […] Ten strawberry plants are taken from each block, with one leaf labeled for each plant. The number of red spider mites on both sides of each of the ten leaves are inspected. The red spider mites are directly observed with a hand-held magnifying lens, and the number of all living mites is taken down. The initial population number of the red spider mites is investigated before the application, and a total of three investigations are conducted on Day 1, Day 4, and Day 7 respectively after the application.
Calculation method of pesticidal effect: the control effect is calculated based on the initial population number of the red spider mites before the application and the number of living red spider mites on each day after the application, and the calculation formula is shown below: The data is analyzed for significance using Duncan's new multiple range method of DPS software.

[3] = system: Tetranychus cinnabarinus; assay: Slide dipping method, miticidal activity against Tetranychus cinnabarinus; conditions: for Mortality (%): 24 hrs after dipping; for Probability Unit (P + 5): probit of mortality
Text: as §1
An LC50 value is calculated by using the SPASS 19.0 data processing software.

[4] = system: Tetranychus urticae; assay: Slide dipping method, miticidal activity against Tetranychus urticae; conditions: for Mortality (%): 24 hrs after dipping; for Probability Unit (P + 5): probit of mortality
Text: as §1, with “by” for “by the”, “body color,” for “body color”, “incubator for 4 hrs at” for “incubator with the”, “approximately 85%,” for “approximately 85% for 4 hrs,”, “5 s,” for “5 s”, “using” for “using the”

[5] = Dose 19.475 μg/mL, female adult mites
[6] = Dose 38.95 μg/mL, female adult mites
[7] = Dose 77.9 μg/mL, female adult mites
[8] = Dose 389.5 μg/mL, female adult mites
[9] = Day 4 after application, field spray on strawberry leaves
[10] = Day 7 after application, field spray on strawberry leaves

B1: BVP10 protein: protein shown in SEQ ID NO:2 for controlling tetranychid mites, prokaryotically expressed in Escherichia coli BL21, about 10 kDa (protein)
chain: MLKSKIKKIAGAAVIAGALLVSVSPAKAETLPGLIWVMDKYTDAFKFDMFIKNGNEKWVYVYTRLSDGKVDVEEVKCETIYKDRCYVKQ
modifications: Sequence for protein prepared by prokaryotic expression, eukaryotic expression, or direct synthesis, based the gene sequence of SEQ ID NO 1
Mortality (%) [1, 5]: 23.5% | Probability Unit (P + 5) ([1]; Dose 19.475 μg/mL): 4.276 | Mortality (%) [1, 6]: 47.1% | Probability Unit (P + 5) ([1]; Dose 38.95 μg/mL): 4.922 | Mortality (%) [1, 7]: 63.6% | Probability Unit (P + 5) ([1]; Dose 77.9 μg/mL): 5.349 | Mortality (%) [1, 8]: 78.6% | Probability Unit (P + 5) ([1]; Dose 389.5 μg/mL): 5.793 | Medial Lethal Concentration (LC50, μg/mL) ([1]; female adult mites, 24 hrs, regression Y = 3.0472 + 1.1072X (r = 0.9548)): 58.05 µg/mL | Control effect (%) ([2]; Day 1 after application): 79.53% | Decline rate (%) of living mites ([2]; Day 1 after application, field spray on strawberry leaves): 41.14% | Residual no of mites ([2]; Day 1 after application, field spray on strawberry leaves, BVP10 389.5 μg/mL, reference diluted 3000 times): 206 | Control effect (%) ([2]; Day 4 after application): 83.71% | Decline rate (%) of living mites [2, 9]: 33.14% | Residual number of mites [2, 9]: 234 | Control effect (%) ([2]; Day 7 after application): 95.45% | Decline rate (%) of living mites [2, 10]: 77.14% | Residual number of mites [2, 10]: 80 | Medial Lethal Concentration (LC50, μg/mL) ([3]; 24 hrs, regression Y = 2.3766 + 1.6846X (r = 0.9797)): 36.08 µg/mL | Mortality (%) ([3]; Dose 19.475 μg/mL): 27.8% | Probability Unit (P + 5) ([3]; Dose 19.475 μg/mL): 4.413 | Mortality (%) ([3]; Dose 38.95 μg/mL): 51.4% | Probability Unit (P + 5) ([3]; Dose 38.95 μg/mL): 5.039 | Mortality (%) ([3]; Dose 77.9 μg/mL): 80.0% | Probability Unit (P + 5) ([3]; Dose 77.9 μg/mL): 5.840 | Mortality (%) ([3]; Dose 389.5 μg/mL): 94.7% | Probability Unit (P + 5) ([3]; Dose 389.5 μg/mL): 6.616 | Mortality (%) [4, 5]: 47.2% | Probability Unit (P + 5) ([4]; Dose 19.475 μg/mL): 4.927 | Mortality (%) [4, 6]: 60.6% | Probability Unit (P + 5) ([4]; Dose 38.95 μg/mL): 5.268 | Mortality (%) [4, 7]: 55.9% | Probability Unit (P + 5) ([4]; Dose 77.9 μg/mL): 5.148 | Mortality (%) [4, 8]: 68.4% | Probability Unit (P + 5) ([4]; Dose 389.5 μg/mL): 5.483 | Medial Lethal Concentration (LC50, μg/mL) ([4]; female adult mites, 24 hrs, regression Y = 4.5286 + 0.3682X (r = 0.8832)): 19.07 µg/mL
